In US20240287168A1 (SHANGHAI JEMINCARE PHARMACEUTICAL, published 2024):

How the values were obtained:
[1] = target: T1, Biotinylated Human VEGF165 (ACROBiosystems, Cat. No. VE5-H82Q0) (human, UniProt P15692-4 27-191, biotinylated (site not stated)); assay: flow cytometry, yeast-displayed clone, 1 nM Human VEGF165-Biotin
T1 construct: Bought reagent; also called Human VEGF-Bio; human VEGF165-Bio

[2] = target: T1, Biotinylated Human VEGF165 …; assay: flow cytometry, yeast-displayed clone, 1 nM Human VEGF165-Biotin; ratio of binding MFI and displaying MFI
[3] = target: T1, Biotinylated Human VEGF165 …; assay: BLI (Octet RED96e), method of Example 4, antibody on AHC sensor
Protocol: (§1) The antigen and antibody were both diluted with 1×PBST (1×PBS: Sango Biotech, B548117-0500; 0.02% Tween 20: sigma-alorich, P1379), the antigen was used at a concentration of 100 nM, and the antibody was used at a concentration of 50 nM.
(§2) (2) On-board detection of samples (Octet Data Acquisition 11.1.0.11): First, the samples were added to a 96-well plate (Greiner bio-one, 655209), and the system was 200 μL/well. Then the software parameters were set, the plate temperature was set to be 30° C., and the frequency of collecting the standard kinetic signal was 5.0 Hz. Next, the AHC sensor (Fortébio, Cat. No.: 18-0015) was pre-wetted with 1×PBST for 10 minutes, and then detected on the machine. Each cycle consists of the following steps: 1) immersion in the buffer for 60 seconds; 2) detection of whether there is a non-specific binding between antigen and sensor; 3) regeneration of 10 mM glycine solution with pH 1.7; 4) immersion in the buffer for 60 seconds; 5) immobilization of the antibody on the sensor for a time of 20 seconds; 6) immersion of the sensor in the buffer for 180 seconds; 7) binding of the antigen to the antibody for a time of 180 seconds; 8) dissociation of the antigen and the antibody for 10 minutes; 9) sensor regeneration.

[4] = target: T1, Biotinylated Human VEGF165 …; assay: BLI (Octet RED96e), method of Example 4, antibody on AHC sensor, 1:1 fit
Protocol: as §1, §2

[5] = target: T1, Biotinylated Human VEGF165 …; assay: competitive ELISA: antibody titrated with biotinylated human VEGF165 (formulated at 700 ng/ml) on coated human VEGFR2, SA-HRP, OD450; blocked interaction VEGF165-VEGFR2
Protocol: (§3) A competitive ELISA method was used to determine the activity of the single domain antibody in blocking the binding of VEGF165 to human VEGFR2. […] The next day, the plate was washed 3 times with washing solution PBST (0.05% TWEEN-20: sigma-alorich, P1379), and then the blocking solution PBST+2% BSA (BSA: VWR, 0332-1 KG) was prepared using the washing solution, with 300 μL of blocking solution added to each well, blocked at 37° C. for 1 hour. […] The plate was washed three times with the washing solution, the secondary antibody SA-HRP (sigma, S2438) was diluted 1:5000 with the blocking solution, added to the ELISA plate according to 100 μL/well, and incubated at 37° C. for 1 hour. The plate was washed 3 times with the washing solution, 100 μL of TMB chromogenic solution (Biopanda, Cat. No.: TMB-S-003) were added to each well, and developed color at room temperature in the dark, and then 50 μL of stop solution (Solarbio, Cat. No.: C1058) were added to each well to stop the reaction, and the absorbance was measured at a wavelength of 450 nm.

[6] = target: T1, Biotinylated Human VEGF165 …; assay: BLI (Octet RED96e), antibody captured on AHC sensor, 100 nM VEGF165, 1:1 fit
Protocol: as §1, §2
Fortebio's Data Analysis 11.0 software was used to measure the binding rate (Ka) and dissociation rate (Kd) of the antigen-antibody in a 1:1 binding mode, and then the equilibrium dissociation constant (KD) of the antibody was calculated.

[7] = target: T1, Biotinylated Human VEGF165 …; assay: competitive ELISA: antibody titrated with biotinylated human VEGF165 on coated human VEGFR2, SA-HRP, OD450; blocked interaction VEGF165-VEGFR2
Protocol: as §3

irrelevant antigen = assay: flow cytometry, yeast-displayed VHH, 10 nM irrelevant antigen, streptavidin-PE (Protocol 3, non-specific binding level)
[8] = target: T1, Biotinylated Human VEGF165 …; assay: BLI (Octet RED96e), antibody captured on AHC sensor, 100 nM VEGF165
Protocol: as §1, §2

T1 sequence (P15692 other isoform, or with tags, fused parts or gaps limits assumed): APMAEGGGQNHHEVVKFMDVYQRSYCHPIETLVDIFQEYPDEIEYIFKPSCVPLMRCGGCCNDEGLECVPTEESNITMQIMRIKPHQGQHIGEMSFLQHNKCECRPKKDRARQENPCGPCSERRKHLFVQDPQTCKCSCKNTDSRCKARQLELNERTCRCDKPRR

Binder	Binding MFI [1] [MFI]	Binding force [2]	Response value [3]	Kd [4] [nM]	koff [4] [s⁻¹]	kon [4] [M⁻¹ s⁻¹]	IC50 [5] [µg/mL]	further results
Ab1910VE9 parental sequence displayed on the surface of yeast (VHH, also called clone number Ab1910VE9) VHH: EVQLVESGGGLVQPGGSLRLSCAASGSTSDIVSMAWYRQAPGKERELVSAVFAEDWRYVEDSVKGRFTISRDNSKNTVYLQMNSLRAEDTAVYYCNVRLRITDERRRERLDYWGQGTLVTVSS	42.1	11.7						
Ab1910VE18 (expressed single domain antibody with the Ab1910VE9 parent sequence, molecule before affinity maturation) (VHH, Its theoretical pI (7.5) differs from that of Ab1910VE9 (7), so it is kept apart from Ab1910VE9) VHH: EVQLVESGGGLVQPGGSLRLSCAASGSTSDIVSMAWYRQAPGKERELVSAVFAEDWRYVEDSVKGRFTISRDNSKNTVYLQMNSLRAEDTAVYYCNVRLRITDERRRERLDYWGQGTLVTVSS			0.142	2.23	0.00403	1.81e+06	0.88	
Ab1910VE9 (Hz20A6.3 humanized VHH fused with IgG1 Fc N297A) (Fc fusion, Expressed in ExpiCHO cells; not shown: IgG1 Fc N297A (purchased from Taizhou Biointron Inc.)) VHH: EVQLVESGGGLVQPGGSLRLSCAASGSTSDIVSMAWYRQAPGKERELVSAVFAEDWRYVEDSVKGRFTISRDNSKNTVYLQMNSLRAEDTAVYYCNVRLRITDERRRERLDYWGQGTLVTVSS								Kd [6]: 9.91 nM; koff [6]: 0.0181 s⁻¹; kon [6]: 1.82e+06 M⁻¹ s⁻¹; IC50 [7]: 4.67 µg/mL
Ab1910VE8 (Hz20A6.2 humanized VHH fused with IgG1 Fc N297A) (Fc fusion, Expressed in ExpiCHO cells; not shown: IgG1 Fc N297A (purchased from Taizhou Biointron Inc.)) VHH: EVQLVESGGGLVQPGGSLRLSCAASGSTSDIVSMAWYRQAPGKERELVSAVFAEDWRYVEDSVKGRFTISRDNSKNTVYLQMNSLRAEDTAVYYCNVRLRITDERRRERLDYWGKGTTVTVSS								Kd [6]: 10.5 nM; koff [6]: 0.0184 s⁻¹; kon [6]: 1.75e+06 M⁻¹ s⁻¹; IC50 [7]: 4.18 µg/mL
Ab1910VE21 (expressed affinity-matured single domain antibody, clone YC41D1) (VHH) VHH: EVQLVESGGGLVQPGGSLRLSCAASGSTSDIVSMAWYRQAPGKERELVSAVLAPGWSYVEDSVKGRFTISRDNSKNTVYLQMNSLRAEDTAVYYCNVRLRITDERRRERLDYWGQGTLVTVSS			0.154	0.413	0.00051	1.24e+06	0.42	
Y20A6, anti-human VEGF165 single domain heavy chain antibody clone displayed on yeast (VHH, not shown: large carriers; small tags and cut ends) VHH: AVQLVESGGGLVQAGGSARLSCAASGSTSDIVSMAWYRQAPGKERDLVAAVFAEDWRYVEDSVRGRFTISRDNTKNTVDLQMNNLKPEDTAIYYCNVRLRITDERRRERLDYWGQGTQVTVSS								Irrelevant antigen binding signal (PE MFI) (irrelevant antigen): 21.8 MFI
Ab1910VE6 (Y20A6 VHH fused with IgG1 Fc N297A; original antibody before humanization) (Fc fusion, Expressed in ExpiCHO cells; not shown: IgG1 Fc N297A (purchased from Taizhou Biointron Inc.)) VHH: AVQLVESGGGLVQAGGSARLSCAASGSTSDIVSMAWYRQAPGKERDLVAAVFAEDWRYVEDSVRGRFTISRDNTKNTVDLQMNNLKPEDTAIYYCNVRLRITDERRRERLDYWGQGTQVTVSS								Response value [8]: 0.442; Kd [6]: 6.3 nM; koff [6]: 0.00888 s⁻¹; kon [6]: 1.41e+06 M⁻¹ s⁻¹; IC50 [7]: 0.516 µg/mL

Second part, led by results:

Binding MFI [1] [MFI]	Binding force [2]	Response value [3]	Kd [4] [nM]	koff [4] [s⁻¹]	kon [4] [M⁻¹ s⁻¹]	IC50 [5] [µg/mL]	Binder	further results
337	98.2						YC41D1, affinity-matured mutant clone of Ab1910VE9 displayed on yeast (VHH, also called antibody number Ab1910VE21) VHH: EVQLVESGGGLVQPGGSLRLSCAASGSTSDIVSMAWYRQAPGKERELVSAVLAPGWSYVEDSVKGRFTISRDNSKNTVYLQMNSLRAEDTAVYYCNVRLRITDERRRERLDYWGQGTLVTVSS	
358	129						YC43H2, affinity-matured mutant clone of Ab1910VE9 displayed on yeast (VHH, also called antibody number Ab1910VE23) VHH: EVQLVESGGGLVQPGGSLRLSCAASGSTSDIVSMAWYRQAPGKERELVSAVFAEDWRYVEDSVKGRFTISRDNSKNTVYLQMNSLRAEDTAVYYCNVRLRIPHQWRTERLDYWGQGTLVTVSS	
		0.116	0.728	0.00104	1.43e+06	1.24	Ab1910VE23 (expressed affinity-matured single domain antibody, clone YC43H2) (VHH) VHH: EVQLVESGGGLVQPGGSLRLSCAASGSTSDIVSMAWYRQAPGKERELVSAVFAEDWRYVEDSVKGRFTISRDNSKNTVYLQMNSLRAEDTAVYYCNVRLRIPHQWRTERLDYWGQGTLVTVSS	
503	114						YC43B1, affinity-matured mutant clone of Ab1910VE9 displayed on yeast (VHH, also called antibody number Ab1910VE24) VHH: EVQLVESGGGLVQPGGSLRLSCAASGSTSDIVSMAWYRQAPGKERELVSAVFAEDWRYVEDSVKGRFTISRDNSKNTVYLQMNSLRAEDTAVYYCNVRLRITDWYSRERLDYWGQGTLVTVSS	
		0.153	0.626	0.000857	1.37e+06	0.623	Ab1910VE24 (expressed affinity-matured single domain antibody, clone YC43B1) (VHH) VHH: EVQLVESGGGLVQPGGSLRLSCAASGSTSDIVSMAWYRQAPGKERELVSAVFAEDWRYVEDSVKGRFTISRDNSKNTVYLQMNSLRAEDTAVYYCNVRLRITDWYSRERLDYWGQGTLVTVSS	
